What was measured:
recombinant human IGF-2 = molecular target: T1, recombinant human IGF-2 (human); test: SPR; Biacore T200, competition in solution: 5 nM hIGF-1 or hIGF-2 incubated 1 h with 0.12-500 nM IGF-TRAP, injected over about 4000 RU MEDI-573 amine-coupled to a CM-5 chip; free ligand read 10 s after end of injection; PBS 0.05% Tween 20, 25 °C; details: both partners purified
T1 construct: human insulin-like growth factor 2, recombinant; also called rhIGF-2; hIGF-2; source: bought: Sigma-Aldrich

recombinant human IGF-1 = molecular target: T2, recombinant human IGF-1 (Homo sapiens, UniProt P05019); test: as above; details: both partners purified
T2 construct: human insulin-like growth factor 1, recombinant; also called rhIGF-1; hIGF-1; source: bought: Sigma-Aldrich
T2 sequence (P05019 49-118): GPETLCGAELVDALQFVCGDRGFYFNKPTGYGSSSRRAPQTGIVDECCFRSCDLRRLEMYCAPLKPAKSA

B1: dusigitumab (MEDI-573) (antibody, V domains shown)
VH: QVQLVQSGAEVKKPGASVKVSCKASGYTFTSYDINWVRQATGQGLEWMGWMNPNSGNTGYAQKFQGRVTMTRNTSISTAYMELSSLRSEDTAVYYCARDPYYYYYGMDVWGQGTTVTVSS
VL: QSVLTQPPSVSAAPGQKVTISCSGSSSNIENNHVSWYQQLPGTAPKLLIYDNNKRPSGIPDRFSGSKSGTSATLGITGLQTGDEADYYCETWDTSLSAGRVFGGGTKLTVL
binding result (recombinant human IGF-2): binds
binding result (recombinant human IGF-1): binds

Source: PMC6255772, “Enhanced anti-metastatic bioactivity of an IGF-TRAP re-engineered to improve physicochemical properties” (Scientific Reports, 2018)
